Measurements published in the supplement of paper PMC10065799, “High-throughput profiling of sequence recognition by tyrosine kinases and SH2 domains using bacterial peptide display” (eLife, 2023).

What was measured:
Hck = Hck (UniProt P08631); assay: phosphorylation enrichment, bacterial display (enrichment ratio); higher = better substrate or ligand; peptides without Tyr show the background
EPHB2 = EPHB2 (UniProt P29323); assay: as above
Fer (mouse) = assay: as above
Fyn = Fyn (UniProt P06241); assay: as above
Sequence of Fyn (P06241 whole entry, looked up): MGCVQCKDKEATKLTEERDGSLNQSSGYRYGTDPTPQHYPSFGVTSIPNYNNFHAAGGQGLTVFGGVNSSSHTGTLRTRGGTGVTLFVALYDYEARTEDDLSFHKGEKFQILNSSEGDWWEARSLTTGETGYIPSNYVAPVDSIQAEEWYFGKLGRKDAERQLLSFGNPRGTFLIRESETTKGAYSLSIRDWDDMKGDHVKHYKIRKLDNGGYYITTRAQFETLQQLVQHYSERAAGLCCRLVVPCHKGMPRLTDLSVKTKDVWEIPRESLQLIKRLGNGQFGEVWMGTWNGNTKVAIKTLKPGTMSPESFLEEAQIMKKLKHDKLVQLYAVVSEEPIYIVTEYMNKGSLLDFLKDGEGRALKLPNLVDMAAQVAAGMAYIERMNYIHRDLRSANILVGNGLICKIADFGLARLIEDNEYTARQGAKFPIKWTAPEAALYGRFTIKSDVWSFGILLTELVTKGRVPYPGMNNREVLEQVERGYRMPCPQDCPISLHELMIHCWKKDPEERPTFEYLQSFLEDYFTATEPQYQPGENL

EPHB1 = EPHB1 (UniProt P54762); assay: as above
Fes = Fes (UniProt P07332); assay: as above
Sequence of Fes (P07332 whole entry, looked up): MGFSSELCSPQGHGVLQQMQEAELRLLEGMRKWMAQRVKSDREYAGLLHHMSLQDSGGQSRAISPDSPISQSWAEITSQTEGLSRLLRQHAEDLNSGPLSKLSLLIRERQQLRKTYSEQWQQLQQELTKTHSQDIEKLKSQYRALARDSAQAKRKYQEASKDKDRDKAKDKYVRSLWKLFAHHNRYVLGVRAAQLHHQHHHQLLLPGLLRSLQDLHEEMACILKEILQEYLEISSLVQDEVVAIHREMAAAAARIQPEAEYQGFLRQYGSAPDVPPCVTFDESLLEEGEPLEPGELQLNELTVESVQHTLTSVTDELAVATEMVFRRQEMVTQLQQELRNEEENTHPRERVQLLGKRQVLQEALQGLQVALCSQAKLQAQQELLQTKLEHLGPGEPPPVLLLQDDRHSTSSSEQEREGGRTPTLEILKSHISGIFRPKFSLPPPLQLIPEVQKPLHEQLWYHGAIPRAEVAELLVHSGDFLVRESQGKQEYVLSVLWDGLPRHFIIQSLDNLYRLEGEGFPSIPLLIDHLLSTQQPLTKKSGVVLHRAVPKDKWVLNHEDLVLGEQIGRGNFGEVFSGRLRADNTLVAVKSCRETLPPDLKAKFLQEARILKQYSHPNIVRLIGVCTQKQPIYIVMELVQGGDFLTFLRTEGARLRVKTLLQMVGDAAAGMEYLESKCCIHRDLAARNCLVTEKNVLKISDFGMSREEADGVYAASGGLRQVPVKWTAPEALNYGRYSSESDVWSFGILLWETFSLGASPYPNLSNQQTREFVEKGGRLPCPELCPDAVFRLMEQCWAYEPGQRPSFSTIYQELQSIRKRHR

AncSZ = assay: as above
FGFR1 = FGFR1 (UniProt P11362); assay: as above
Sequence of FGFR1 (P11362 whole entry, looked up): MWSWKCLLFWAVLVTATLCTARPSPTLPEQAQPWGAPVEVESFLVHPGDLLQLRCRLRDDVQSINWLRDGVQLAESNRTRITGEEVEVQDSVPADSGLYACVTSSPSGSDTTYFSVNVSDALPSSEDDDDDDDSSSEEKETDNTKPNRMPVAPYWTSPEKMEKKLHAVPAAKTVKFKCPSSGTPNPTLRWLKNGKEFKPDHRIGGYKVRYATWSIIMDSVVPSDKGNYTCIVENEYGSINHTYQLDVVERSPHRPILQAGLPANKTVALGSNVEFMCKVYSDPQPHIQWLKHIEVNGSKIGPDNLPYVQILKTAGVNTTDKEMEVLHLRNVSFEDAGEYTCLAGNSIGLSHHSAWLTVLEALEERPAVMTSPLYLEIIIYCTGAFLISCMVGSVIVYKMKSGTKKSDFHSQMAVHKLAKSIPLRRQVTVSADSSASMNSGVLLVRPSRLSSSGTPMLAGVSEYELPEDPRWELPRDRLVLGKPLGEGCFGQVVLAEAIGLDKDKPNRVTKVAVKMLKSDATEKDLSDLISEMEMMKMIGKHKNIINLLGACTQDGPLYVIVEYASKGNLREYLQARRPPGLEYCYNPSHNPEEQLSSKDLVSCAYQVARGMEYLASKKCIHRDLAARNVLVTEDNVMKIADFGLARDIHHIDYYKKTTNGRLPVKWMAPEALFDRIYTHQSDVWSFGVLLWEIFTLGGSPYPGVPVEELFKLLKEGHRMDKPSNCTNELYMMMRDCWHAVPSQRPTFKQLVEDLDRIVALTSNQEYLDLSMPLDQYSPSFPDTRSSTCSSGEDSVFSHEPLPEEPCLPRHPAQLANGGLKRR

c-Abl (mouse) = assay: as above
FGFR3 = FGFR3 (UniProt P22607); assay: as above
Sequence of FGFR3 (P22607 whole entry, looked up): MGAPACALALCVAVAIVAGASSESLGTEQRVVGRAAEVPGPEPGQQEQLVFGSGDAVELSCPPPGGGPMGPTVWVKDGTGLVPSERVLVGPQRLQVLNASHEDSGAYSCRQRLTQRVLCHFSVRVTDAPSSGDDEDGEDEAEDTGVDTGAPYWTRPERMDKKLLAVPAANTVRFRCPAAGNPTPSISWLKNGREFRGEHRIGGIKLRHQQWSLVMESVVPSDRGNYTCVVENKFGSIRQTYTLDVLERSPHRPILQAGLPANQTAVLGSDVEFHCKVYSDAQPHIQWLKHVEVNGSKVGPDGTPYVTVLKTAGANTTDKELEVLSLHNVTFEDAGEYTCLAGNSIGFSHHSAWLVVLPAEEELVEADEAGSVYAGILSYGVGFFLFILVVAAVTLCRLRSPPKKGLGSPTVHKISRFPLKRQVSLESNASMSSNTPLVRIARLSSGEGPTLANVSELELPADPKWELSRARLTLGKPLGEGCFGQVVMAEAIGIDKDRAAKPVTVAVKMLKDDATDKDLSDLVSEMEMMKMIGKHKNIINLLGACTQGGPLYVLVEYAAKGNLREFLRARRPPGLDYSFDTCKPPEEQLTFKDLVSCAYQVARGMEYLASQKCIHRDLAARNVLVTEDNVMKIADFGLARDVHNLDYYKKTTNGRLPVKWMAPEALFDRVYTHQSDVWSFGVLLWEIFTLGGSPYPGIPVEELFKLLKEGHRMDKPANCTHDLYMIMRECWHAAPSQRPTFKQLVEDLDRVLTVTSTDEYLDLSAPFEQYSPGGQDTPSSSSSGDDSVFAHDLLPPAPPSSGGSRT

Jak2 = Jak2 (UniProt O60674); assay: as above
c-Src = assay: as above
MERTK = MERTK (UniProt Q12866); assay: as above
Sequence of MERTK (Q12866 whole entry, looked up): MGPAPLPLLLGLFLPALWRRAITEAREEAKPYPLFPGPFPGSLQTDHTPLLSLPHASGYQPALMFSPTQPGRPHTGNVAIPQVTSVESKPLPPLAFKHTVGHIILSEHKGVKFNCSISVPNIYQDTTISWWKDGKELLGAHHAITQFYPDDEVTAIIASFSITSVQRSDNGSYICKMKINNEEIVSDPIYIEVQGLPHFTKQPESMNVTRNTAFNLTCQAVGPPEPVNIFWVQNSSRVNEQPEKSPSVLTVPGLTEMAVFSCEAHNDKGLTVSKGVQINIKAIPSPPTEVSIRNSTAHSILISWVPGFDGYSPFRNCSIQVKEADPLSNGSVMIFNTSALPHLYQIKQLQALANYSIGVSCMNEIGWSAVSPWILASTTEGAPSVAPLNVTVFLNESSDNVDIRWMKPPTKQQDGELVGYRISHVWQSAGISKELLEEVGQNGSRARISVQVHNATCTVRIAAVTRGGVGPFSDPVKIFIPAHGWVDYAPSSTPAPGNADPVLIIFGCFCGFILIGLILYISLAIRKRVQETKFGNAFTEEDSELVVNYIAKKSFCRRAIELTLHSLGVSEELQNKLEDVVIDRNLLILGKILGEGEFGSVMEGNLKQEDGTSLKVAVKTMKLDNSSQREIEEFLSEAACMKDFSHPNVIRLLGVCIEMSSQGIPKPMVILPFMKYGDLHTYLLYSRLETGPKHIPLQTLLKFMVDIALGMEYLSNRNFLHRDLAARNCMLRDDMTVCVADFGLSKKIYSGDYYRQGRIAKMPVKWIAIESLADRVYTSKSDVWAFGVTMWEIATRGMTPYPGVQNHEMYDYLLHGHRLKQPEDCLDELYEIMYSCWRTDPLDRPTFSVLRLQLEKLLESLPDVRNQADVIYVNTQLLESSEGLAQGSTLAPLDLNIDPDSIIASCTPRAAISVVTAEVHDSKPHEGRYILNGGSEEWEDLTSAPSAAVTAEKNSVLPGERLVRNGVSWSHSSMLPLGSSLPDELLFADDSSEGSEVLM

c-Src SH2 = assay: SH2 binding enrichment of the phosphorylated peptide, bacterial display (enrichment ratio); higher = better substrate or ligand; peptides without Tyr show the background
SHP2-C SH2 = assay: as above
Grb2 SH2 = Grb2 SH2 (UniProt P62993); assay: as above
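Wherever SH2 binding enrichment of the phosphorylated peptide, bacterial display is given: peptide library displayed on the E. coli surface as eCPX fusions, selected cells deep-sequenced, score is each peptide's frequency after selection divided by its frequency in the input.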
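Wherever phosphorylation enrichment, bacterial display is given: 11-residue human phosphosite peptides and single-mutation variants displayed on the E. coli surface, counted by deep sequencing, each peptide's frequency after selection divided by its frequency in the unselected input library; frequency after pTyr selection over input frequency; kinase dosed for 20-30% of maximal phosphorylation in three min.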

Sequence of EPHB2 (P29323 whole entry, looked up): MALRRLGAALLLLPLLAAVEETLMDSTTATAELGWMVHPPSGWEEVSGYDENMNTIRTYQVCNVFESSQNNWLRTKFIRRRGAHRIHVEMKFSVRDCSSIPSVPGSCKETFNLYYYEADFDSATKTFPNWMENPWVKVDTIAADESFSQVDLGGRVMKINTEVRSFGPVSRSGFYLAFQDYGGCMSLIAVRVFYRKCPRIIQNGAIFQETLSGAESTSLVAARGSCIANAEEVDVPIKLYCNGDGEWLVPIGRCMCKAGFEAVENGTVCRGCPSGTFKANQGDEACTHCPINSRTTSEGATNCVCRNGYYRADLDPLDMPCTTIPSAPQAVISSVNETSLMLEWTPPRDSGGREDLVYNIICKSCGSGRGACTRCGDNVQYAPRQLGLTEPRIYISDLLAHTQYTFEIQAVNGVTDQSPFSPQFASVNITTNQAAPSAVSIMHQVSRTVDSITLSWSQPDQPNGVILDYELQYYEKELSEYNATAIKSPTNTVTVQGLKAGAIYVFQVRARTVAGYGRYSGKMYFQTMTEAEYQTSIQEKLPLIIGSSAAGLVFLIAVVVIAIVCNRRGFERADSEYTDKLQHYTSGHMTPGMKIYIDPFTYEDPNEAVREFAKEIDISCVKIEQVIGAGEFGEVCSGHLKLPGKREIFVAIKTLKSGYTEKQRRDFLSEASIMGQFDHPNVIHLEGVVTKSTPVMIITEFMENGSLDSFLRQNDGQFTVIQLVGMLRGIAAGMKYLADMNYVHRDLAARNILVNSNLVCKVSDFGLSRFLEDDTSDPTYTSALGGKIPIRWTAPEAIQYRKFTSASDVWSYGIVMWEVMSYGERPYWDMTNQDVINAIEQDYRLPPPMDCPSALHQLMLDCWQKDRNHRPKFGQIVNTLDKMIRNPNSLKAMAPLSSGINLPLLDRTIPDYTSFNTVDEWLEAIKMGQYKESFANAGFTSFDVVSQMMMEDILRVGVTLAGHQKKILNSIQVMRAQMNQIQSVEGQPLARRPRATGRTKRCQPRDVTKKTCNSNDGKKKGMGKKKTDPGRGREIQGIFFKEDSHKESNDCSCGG

Row | SH2 binding enrichment (c-Src SH2) | SH2 binding enrichment (SHP2-C SH2) | SH2 binding enrichment (Grb2 SH2) | Sequence | phosphorylation enrichment (Hck) | phosphorylation enrichment (EPHB2) | phosphorylation enrichment (Fer (mouse)) | phosphorylation enrichment (Fyn) | phosphorylation enrichment (EPHB1) | phosphorylation enrichment (Fes) | phosphorylation enrichment (AncSZ) | phosphorylation enrichment (FGFR1) | phosphorylation enrichment (c-Abl (mouse)) | phosphorylation enrichment (FGFR3) | phosphorylation enrichment (Jak2) | phosphorylation enrichment (c-Src) | phosphorylation enrichment (MERTK)
1 | 1.06 | 0.784 | 2.08 | CPPELYALMSD [ZAP70_Y569] | 1.08 | 1.13 | 1.19 | 0.612 | 3.39 | 1.31 | 1.57 | 0.905 | 0.681 | 1 | 0.892 | 0.828 | 3.54
2 | 0.632 | 0.711 | 0.729 | CTTIHCNYMCN [TP53_Y234_Y234C] | 0.503 | 0.612 | 0.599 | 0.403 | 0.784 | 1.15 | 1.06 | 0.41 | 0.775 | 0.731 | 0.921 | 1.14 | 0.395
3 | 2.73 | 5.53 | 1.33 | CTTIHYHYMCN [TP53_Y234_N235H] | 0.551 | 0.425 | 0.523 | 0.561 | 0.551 | 0.963 | 0.964 | 0.568 | 0.661 | 0.667 | 0.668 | 0.414 | 0.446
4 | 0.772 | 0.788 | 0.96 | CTTIHYNFMGN [TP53_Y234_C238G_YF] | 0.478 | 0.487 | 0.472 | 0.464 | 0.565 | 0.876 | 0.926 | 0.542 | 0.699 | 0.523 | 0.73 | 0.402 | 0.532
5 | 1.93 | 1.59 | 1.94 | CTTIHYNFVCN [TP53_Y234_M237V_YF] | 0.54 | 0.654 | 0.694 | 0.539 | 0.678 | 1.11 | 0.998 | 0.694 | 0.754 | 0.769 | 1.01 | 0.532 | 0.508
6 | 1.06 | 1.13 | 0.951 | CTTIHYNYMFN [TP53_Y234_C238F] | 0.498 | 0.641 | 0.757 | 0.555 | 0.672 | 1.21 | 1.14 | 0.657 | 0.926 | 0.812 | 1 | 0.522 | 0.681
7 | 7.58 | 4.2 | 1.36 | CTTIHYNYVCN [TP53_Y234_M237V] | 0.514 | 0.645 | 0.696 | 0.556 | 0.616 | 0.949 | 0.904 | 0.685 | 0.595 | 0.648 | 0.828 | 0.455 | 0.498
8 | 2.62 | 4.43 | 1.88 | CTTIHYSFMCN [TP53_Y234_N235S_YF] | 0.559 | 0.572 | 0.942 | 0.563 | 0.568 | 1 | 1.08 | 0.636 | 0.828 | 0.666 | 0.734 | 0.544 | 0.843
9 | 0.517 | 0.576 | 0.76 | CVVVPYEPPEV [TP53_Y220_S215C] | 0.599 | 0.641 | 0.854 | 0.568 | 0.864 | 1.54 | 1.65 | 0.574 | 1.01 | 1.03 | 1.38 | 0.557 | 0.462
10 | 0.47 | 0.999 | 0.735 | DAVAVYDGKIS [SH2D1A_Y7_H8D] | 2.02 | 0.622 | 0.456 | 0.655 | 0.589 | 0.988 | 0.721 | 0.44 | 0.728 | 0.565 | 0.778 | 0.83 | 0.498

Continued, sequence first:

Row | Sequence | SH2 binding enrichment (c-Src SH2) | SH2 binding enrichment (SHP2-C SH2) | SH2 binding enrichment (Grb2 SH2) | phosphorylation enrichment (Hck) | phosphorylation enrichment (EPHB2) | phosphorylation enrichment (Fer (mouse)) | phosphorylation enrichment (Fyn) | phosphorylation enrichment (EPHB1) | phosphorylation enrichment (Fes) | phosphorylation enrichment (AncSZ) | phosphorylation enrichment (FGFR1) | phosphorylation enrichment (c-Abl (mouse)) | phosphorylation enrichment (FGFR3) | phosphorylation enrichment (Jak2) | phosphorylation enrichment (c-Src) | phosphorylation enrichment (MERTK)
11 | CPFNLYAEQFS [HGD_Y40_L44F_YF] | 0.66 | 0.519 | 0.942 | 1.08 | 1.29 | 0.923 | 0.834 | 2.19 | 1.54 | 1.45 | 0.747 | 1.16 | 0.847 | 1.34 | 1.49 | 1.6
12 | CRPPFYHRNCM [HGD_Y334_F329C_YF] | 1.36 | 1.4 | 1.27 | 0.48 | 0.555 | 0.375 | 0.492 | 0.474 | 0.776 | 0.913 | 0.435 | 0.58 | 0.635 | 0.606 | 0.901 | 0.452
13 | CTLLPYYSARV [DGKE_Y269] | 1.81 | 0.889 | 0.74 | 0.604 | 0.655 | 0.497 | 0.464 | 0.601 | 1.04 | 1.03 | 0.485 | 0.735 | 0.699 | 0.937 | 0.579 | 0.508
14 | CWAVKYLQMVG [AVPR2_Y117_R113W] | 0.92 | 1.2 | 1.26 | 0.466 | 0.832 | 0.504 | 0.413 | 0.622 | 1.39 | 1.37 | 0.495 | 0.817 | 0.703 | 1.26 | 0.434 | 0.386
15 | DAAEDYAEGVC [DHODH_Y194_R199C] | 0.609 | 0.598 | 0.816 | 0.559 | 0.713 | 0.765 | 0.566 | 0.801 | 1.24 | 1.31 | 0.658 | 0.917 | 0.895 | 1.19 | 0.559 | 0.492
16 | DAGTDYVGISR [FREM2_Y2061] | 0.481 | 0.758 | 0.938 | 0.545 | 0.492 | 0.459 | 0.482 | 0.445 | 0.64 | 0.606 | 0.541 | 0.54 | 0.621 | 0.496 | 0.459 | 0.414
17 | DAVKHYMQFRK [CNGA2_Y395] | 0.461 | 0.722 | 0.847 | 0.555 | 0.363 | 0.366 | 0.591 | 0.359 | 0.558 | 0.46 | 0.344 | 0.54 | 0.427 | 0.44 | 0.441 | 0.397
